The text below walks through data of publication doi:10.1101/2023.10.13.562155 (bioRxiv, 2023).

The target of this assay is T1, human p75^NTR JXT domain (K273-D332) (human, UniProt P08138 273-332).
T1 sequence (looked up): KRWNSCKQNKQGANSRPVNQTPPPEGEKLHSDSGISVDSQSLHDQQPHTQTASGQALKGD
The assay can be described thus: NMR titration.

B1: RhoGDI NTD^S34D (A2-A60) (domain or fragment, human, UniProt P52565 2-60, looked up)
chain: AEQEPTAEQLAQIAAENEEDEHSVNYKPPAQKDIQEIQELDKDDESLRKYKEALLGRVA
Regarding B1, the binding result is reported as “binds”.
